Test results as given in the supplement of paper PMC11246515.
± gives the standard deviation of the averaged measurements.

Assay: total protein half-life in vivo (active degradation + dilution); higher = more stable protein
[1] = E. coli NCM3722 delta-clpP delta-lon delta-hslV, growth: N-lim chemostat, doubling time 6 h
[2] = E. coli NCM3722 delta-hslV, growth: N-lim chemostat, doubling time 6 h
[3] = E. coli NCM3722 delta-lon, growth: N-lim chemostat, doubling time 6 h
[4] = E. coli NCM3722 delta-clpP, growth: N-lim chemostat, doubling time 6 h
[5] = E. coli NCM3722 delta-smpB, growth: N-lim chemostat, doubling time 6 h
[6] = wild type E. coli NCM3722, growth: C-lim chemostat, doubling time 3 h
[7] = wild type E. coli NCM3722, growth: C-lim chemostat, doubling time 6 h
[8] = wild type E. coli NCM3722, growth: C-lim chemostat, doubling time 12 h
[9] = wild type E. coli NCM3722, growth: N-lim chemostat, doubling time 6 h
[10] = wild type E. coli NCM3722, growth: N-lim chemostat, doubling time 12 h
[11] = wild type E. coli NCM3722, growth: P-lim chemostat, doubling time 6 h
[12] = wild type E. coli NCM3722, growth: P-lim chemostat, doubling time 12 h

| Sequence | total protein half-life in vivo [1] [h] | total protein half-life in vivo [2] [h] | total protein half-life in vivo [3] [h] | total protein half-life in vivo [4] [h] | total protein half-life in vivo [5] [h] | total protein half-life in vivo [6] [h] | total protein half-life in vivo [7] [h] | total protein half-life in vivo [8] [h] | total protein half-life in vivo [9] [h] | total protein half-life in vivo [10] [h] | total protein half-life in vivo [11] [h] | total protein half-life in vivo [12] [h] |
| --- | --- | --- | --- | --- | --- | --- | --- | --- | --- | --- | --- | --- |
| MIELVIVSRLLEYPDAALWQHQQEMFEAIAASKNLPKEDAHALGIFLRDLTTMDPLDAQAQYSELFDRGRATSLLLFEHVHGESRDRGQAMVDLLAQYEQHGLQLNSRELPDHLPLYLEYLAQLPQSEAVEGLKDIAPILALLSARLQQRESRYAVLFDLLLKLANTAIDSDKVAEKIADEARDDTPQALDAVWEEEQVKFFADKGCGDSAITAHQRRFAGAVAPQYLNITTGGQH [P0AF26] | 3.83 ± 0.37 | 0.814 | 2.04 ± 0.028 |  |  |  |  |  |  |  |  |  |
| MIEVKHLKTLQALRNCGSLAAAAATLHQTQSALSHQFSDLEQRLGFRLFVRKSQPLRFTPQGEILLQLANQVLPQISQALQACNEPQQTRLRIAIECHSCIQWLTPALENFHKNWPQVEMDFKSGVTFDPQPALQQGELDLVMTSDILPRSGLHYSPMFDYEVRLVLAPDHPLAAKTRITPEDLASETLLIYPVQRSRLDVWRHFLQPAGVSPSLKSVDNTLLLIQMVAARMGIAALPHWVVESFERQGLVVTKTLGEGLWSRLYAAVRDGEQRQPVTEAFIRSARNHACDHLPFVKSAERPTYDAPTVRPGSPARL [P0A9F9] | 5.1817 ± 0.0019 | 0.933 ± 0.25 | 2.88 ± 0.57 | 1.5 ± 0.033 | 1.1 ± 0.09 | 0.811 ± 0.024 | 1.17 ± 0.17 | 1.08 ± 0.34 | 1.14 ± 0.14 | 1.81 ± 0.27 | 0.609 | 1.87 |
| MIFSDWPWRHWRQVRGETIALRLNDEQLNWRELCARVDELASGFAVQGVVEGSGVMLRAWNTPQTLLAWLALLQCGARVLPVNPQLPQPLLEELLPNLTLQFALVPDGENTFPALTSLHIQLVEGAHAATWQPTRLCSMTLTSGSTGLPKAAVHTYQAHLASAQGVLSLIPFGDHDDWLLSLPLFHVSGQGIMWRWLYAGARMTVRDKQPLEQMLAGCTHASLVPTQLWRLLVNRSSVSLKAVLLGGAAIPVELTEQAREQGIRCFCGYGLTEFASTVCAKEADGLADVGSPLPGREVKIVNNEVWLRAASMAEGYWRNGQLVSLVNDEGWYATRDRGEMHNGKLTIVGRLDNLFFSGGEGIQPEEVERVIAAHPAVLQVFIVPVADKEFGHRPVAVMEYDHESVDLSEWVKDKLARFQQPVRWLTLPPELKNGGIKISRQALKEWVQRQQ |  | 3.92 |  | 4.96 |  | 3.2 | > 8 | 11.3 ± 1.4 | 4.4 |  | 6.327 ± 0.016 | 10.3 ± 1 |
| MIFSVDKVRADFPVLSREVNGLPLAYLDSAASAQKPSQVIDAEAEFYRHGYAAVHRGIHTLSAQATEKMENVRKRASLFINARSAEELVFVRGTTEGINLVANSWGNSNVRAGDNIIISQMEHHANIVPWQMLCARVGAELRVIPLNPDGTLQLETLPTLFDEKTRLLAITHVSNVLGTENPLAEMITLAHQHGAKVLVDGAQAVMHHPVDVQALDCDFYVFSGHKLYGPTGIGILYVKEALLQEMPPWEGGGSMIATVSLSEGTTWTKAPWRFEAGTPNTGGIIGLGAALEYVSALGLNNIAEYEQNLMHYALSQLESVPDLTLYGPQNRLGVIAFNLGKHHAYDVGSFLDNYGIAVRTGHHCAMPLMAYYNVPAMCRASLAMYNTHEEVDRLVTGLQRIHRLLG | 3.84 ± 0.34 | 3.39 ± 0.22 | 3.44 ± 0.05 | 3.43 ± 0.26 | 3.41 ± 0.12 | 3.19 ± 0.48 |  | 8.7 ± 0.18 | 3.38 ± 0.26 | 5.21 ± 0.034 | 6.38 ± 0.54 | 11.3 ± 1.4 |
| MIGRLLRGGFMTAIYAYLYIPIIILIVNSFNSSRFGINWQGFTTKWYSLLMNNDSLLQAAQHSLTMAVFSATFATLIGSLTAVALYRYRFRGKPFVSGMLFVVMMSPDIVMAISLLVLFMLLGIQLGFWSLLFSHITFCLPFVVVTVYSRLKGFDVRMLEAAKDLGASEFTILRKIILPLAMPAVAAGWVLSFTLSMDDVVVSSFVTGPSYEILPLKIYSMVKVGVSPEVNALATILLVLSLVMVIASQLIARDKTKGNTGDVK [P0AFK6] | 5.93 | 5.12 | 5.66 | 6.54 | 5.65 ± 0.13 | 3.13 ± 0.76 |  | 14 | 6.23 ± 0.36 | 13.3 ± 0.85 | 6.269 ± 0.021 | 10.5 ± 2.2 |
| MIGSLTARIFAIFWLTLALVLMLVLMLPKLDSRQMTELLDSEQRQGLMIEQHVEAELANDPPNDLMWWRRLFRAIDKWAPPGQRLLLVTTEGRVIGAERSEMQIIRNFIGQADNADHPQKKKYGRVELVGPFSVRDGEDNYQLYLIRPASSSQSDFINLLFDRPLLLLIVTMLVSTPLLLWLAWSLAKPARKLKNAADEVAQGNLRQHPELEAGPQEFLAAGASFNQMVTALERMMTSQQRLLSDISHELRTPLTRLQLGTALLRRRSGESKELERIETEAQRLDSMINDLLVMSRNQQKNALVSETIKANQLWSEVLDNAAFEAEQMGKSLTVNFPPGPWPLYGNPNALESALENIVRNALRYSHTKIEVGFAVDKDGITITVDDDGPGVSPEDREQIFRPFYRTDEARDRESGGTGLGLAIVETAIQQHRGWVKAEDSPLGGLRLVIWLPLYKRS [P0AE82] | 6.5 ± 0.57 |  | 5.674 ± 0.024 | 6.88 ± 0.076 | 5.86 ± 0.35 | 2.971 ± 0.0099 | 5.92 ± 0.31 | 9.91 ± 1.8 | 6.07 ± 0.074 | 12.8 ± 0.79 | 5.98 ± 0.15 | 11.8 ± 0.38 |
| MIHAFIKKGCFQDSVSLMIISRKLSESENVDDVSVMMGTPANKALLDTTGFWHDDFNNATPNDICVAIRSEAADAGIAQAIMQQLEEALKQLAQGSGSSQALTQVRRWDSACQKLPDANLALISVAGEYAAELANQALDRNLNVMMFSDNVTLEDEIQLKTRAREKGLLVMGPDCGTSMIAGTPLAFANVMPEGNIGVIGASGTGIQELCSQIALAGEGITHAIGLGGRDLSREVGGISALTALEMLSADEKSEVLAFVSKPPAEAVRLKIVNAMKATGKPTVALFLGYTPAVARDENVWFASSLDEAARLACLLSRVTARRNAIAPVSSGFICGLYTGGTLAAEAAGLLAGHLGVEADDTHQHGMMLDADSHQIIDLGDDFYTVGRPHPMIDPTLRNQLIADLGAKPQVRVLLLDVVIGFGATADPAASLVSAWQKACAARLDNQPLYAIATVTGTERDPQCRSQQIATLEDAGIAVVSSLPEATLLAAALIHPLSPAAQQHTPSLLENVAVINIGLRSFALELQSASKPVVHYQWSPVAGGNKKLARLLERLQ |  |  |  |  |  | 2.65 | 4.54 |  |  |  |  |  |
| MIHSSVKRWGNSPAVRIPATLMQALNLNIDDEVKIDLVDGKLIIEPVRKEPVFTLAELVNDITPENLHENIDWGEPKDKEVW [P0AE72] | 5.19 ± 0.15 | 2.17 | 3.17 | 2.31 ± 0.28 | 2.35 |  | 5.66 |  | 1.94 | 5.05 ± 2.4 | 1.3 | 4.48 |
